Test results published in patent US20240391996A1 (TAISHO PHARMACEUTICAL, published 2024).
Like-named read-outs stand apart in the source and are kept apart here.

What was measured:
[1] = molecular target: recombinant cynomolgus monkey GH (cynomolgus monkey); experiment: cell-based or functional assay
[2] = molecular target: T1, placental lactogen (PL) (Protein Laboratories Rehovot Ltd.) (human, UniProt P0DML2 27-217); experiment: competitive ELISA on immobilised human GH; IC50 (human GH)/IC50 (PL) x 100
T1 construct: also called human placental lactogen; GH-analogous protein
Protocol: (§1) IC₅₀ (nmol/L) for each of the anti-GH antibodies was determined by concentration-dependent curves of human GH and GH-analogous protein. The cross-reactivity to the GH-analogous protein was calculated by the following formula 3.

[3] = molecular target: T2, prolactin (PRL) (BBT Boster Immunoleader) (human, UniProt P01236 29-227); experiment: competitive ELISA on immobilised human GH; IC50 (human GH)/IC50 (PRL) x 100
T2 construct: also called human prolactin; GH-analogous protein
T2 sequence (looked up): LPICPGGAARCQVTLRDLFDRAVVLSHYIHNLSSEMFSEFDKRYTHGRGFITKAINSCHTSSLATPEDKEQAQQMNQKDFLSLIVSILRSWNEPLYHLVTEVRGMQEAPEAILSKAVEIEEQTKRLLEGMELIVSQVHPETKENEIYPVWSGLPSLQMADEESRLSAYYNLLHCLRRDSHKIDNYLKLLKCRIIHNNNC
Protocol: as §1

[4] = molecular target: recombinant cynomolgus monkey GH (cynomolgus monkey); experiment: SPR (BIACORE 8K+), antibody captured by anti-human IgG (Fc) on CM5 chip, GH as analyte
Protocol: (§2) The binding properties of the recombinant anti-GH humanized antibody (Hu-13H02) and the Fc mutant thereof (Hu-13H02m) prepared in Example 11, and the chimeric antibody (Ch-13H02) prepared in Example 8 to the human GH (Pharmaceutical and Medical Device Regulatory Science Society of Japan) and the monkey GH (Example 3) were measured with SPR using BIACORE 8K+ (GE Healthcare Inc.). The antibody samples (1 μg/mL) of the three antibodies (Hu-13H02, Hu-13H02m, and Ch-13H02) were captured by anti-human IgG (Fc) antibody immobilized on a CM5 sensor chip, respectively. Next, the human GH ranging from 0.13 to 8.0 nmol/L, or the monkey GH ranging from 0.50 to 32 nmol/L was added to calculate binding and dissociation parameters.

[5] = molecular target: T3, recombinant human GH (Pharmaceutical and Medical Device Regulatory Science Society of Japan) (human, UniProt P01241 27-217); experiment: cell-based or functional assay
[6] = molecular target: T3, recombinant human GH (Pharmaceutical …); experiment: GH-GHR binding inhibition ELISA: biotin-labeled GH (5.5 ng/mL) on captured GHR-hFc, antibody varied
Protocol: The GH-GHR binding inhibitory activity was measured by calculating the inhibition rate of binding signal of biotin-labeled GH to GHR extracellular region protein-human Fc fusion (GHR-hFc) which was immobilized on an ELISA plate via anti-human Fcγ mouse antibody. The biotin-labeled GH was prepared by labeling recombinant GH with EZ-Link Micro NHS-PEG4-Biotinylation kit (Thermo Fisher Scientific Inc.). The specific method is as follows. Anti-human Fcγ mouse antibody (Jackson ImmunoResearch Laboratories, Inc.) diluted to 1 μg/mL PBS was immobilized at 50 μL/well on a 96-well half-area immunoplate, and the plate was blocked with PBS comprising 1% BSA. Next, GHR-hFc (R&D Systems, Inc.) diluted with assay buffer (PBS comprising 0.2% BSA and 0.05% Tween 20) to 0.1 μg/mL was added at 50 μL/well to be captured on the plate. The plate was washed with washing buffer (PBS comprising 0.05% Tween 20), followed by mixing the equivalent amount of biotin-labeled GH diluted with assay buffer to final concentration of 5.5 ng/mL and a sample (anti-GH mouse mAb-comprising sample) diluted with assay buffer, and adding the resultant mixture at 50 μL/well, and the plate was left still at room temperature for 2 hours. […] The reaction was stopped by adding an aqueous solution of 0.5 mol/L H₂SO₄, and then the absorbance at 450 nm was measured with a plate reader.

[7] = molecular target: T3, recombinant human GH (Pharmaceutical …); experiment: cell-based or functional assay; remark: listed apart in the source
[8] = molecular target: T3, recombinant human GH (Pharmaceutical …); experiment: cell-based or functional assay; remark: listed apart in the source
[9] = molecular target: T3, recombinant human GH (Pharmaceutical …); experiment: SPR (BIACORE 8K+), antibody captured by anti-human IgG (Fc) on CM5 chip, GH as analyte
Protocol: as §2

Chain of recombinant cynomolgus monkey GH (cynomolgus monkey) (P33093 27-217): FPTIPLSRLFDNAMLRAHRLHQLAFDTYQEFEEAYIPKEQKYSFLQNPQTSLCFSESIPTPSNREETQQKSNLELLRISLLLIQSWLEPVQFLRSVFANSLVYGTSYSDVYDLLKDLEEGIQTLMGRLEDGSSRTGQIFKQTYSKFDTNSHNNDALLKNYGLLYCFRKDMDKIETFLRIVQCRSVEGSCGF
T3 sequence (P01241 27-217 limits assumed): as the sequence (P33093 27-217) above, with T105A, Y107D, D109N, S133P, N153D, I173V counted along it
T1 sequence (P0DML2 27-217 limits assumed): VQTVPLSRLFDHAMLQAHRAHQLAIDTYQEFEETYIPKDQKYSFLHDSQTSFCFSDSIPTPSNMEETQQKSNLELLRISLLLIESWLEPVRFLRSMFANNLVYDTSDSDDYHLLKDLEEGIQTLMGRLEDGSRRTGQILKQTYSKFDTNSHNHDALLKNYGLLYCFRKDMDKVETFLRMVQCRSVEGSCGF

B1: recombinant anti-GH humanized antibody (Hu-13H02) (antibody, human IgG1, V domains shown)
VH: QVQMVQSGAEVKKPGASVKVSCKASGFTFTSSEISWLRQAPGQRLEWIAWIYPGTGSSKFNQKFTGKATLTADTSASTAYMELSSLRSEDTAVYYCARRGFFGGSFDYWGQGTTVTVSS
VL: DIQLTQSPSFLSASVGDRVTITCTATSSVSSSYLHWYQQKPGKAPKLWIYSTSNLASGVPSRFSGSGSGTEFTLTISSLQPEDFATYYCHQYHHSPPTFGGGTKVEIK
notes: also called humanized 13H02
Neutralizing activity in GH-dependent Nb2 cell proliferation inhibition assay (IC50) [1]: 0.048 nM | cross-reactivity [2]: < 1% | cross-reactivity [3]: < 1% | Kd [4]: 0.13 nM | koff [4]: 6.2e-05 s⁻¹ | kon [4]: 470000 M⁻¹ s⁻¹

B2: anti-GH humanized antibody Fc mutant (Hu-13H02m) (antibody, human IgG1, kappa, V domains shown)
VH: B1 VH
VL: DIQLTQSPSFLSASVGDRVTITCTATSSVSSSYLHWYQQKPGKAPKLWIYSTSNLASGVPSRFSGSGSGTEFTLTISSLQPEDFATYYCHQYHHSPPTFGGGTKVEIKR
notes: also called Fc variant of Hu-13H02
Neutralizing activity in GH-dependent Nb2 cell proliferation inhibition assay (IC50) [1]: 0.0301 nM | cross-reactivity [2]: < 1% | cross-reactivity [3]: < 1% | Kd [4]: 0.13 nM | koff [4]: 6.9e-05 s⁻¹ | kon [4]: 520000 M⁻¹ s⁻¹

B3: anti-GH mouse mAb 13H02 (antibody, mouse IgG2a, V domains shown)
VH: QGQMQQSGGELVNPGSSVKMSCKTSGFTFTSSEISWLKQKPGQSLEWIAWIYPGTGSSKFNQKFTGKAQLTAETSSSTAYMQLSSLTSEDSAIYYCARRGFFGGSFDYWGQGTTLTISS
VL: QIVLAQSPAIMSASLGERVTMTCTATSSVSSSYLHWYQQKPGSSPKLWIYSTSNLASGVPARFSGSGSGTSYSLTISSMEAEDAATYYCHQYHHSPPTFGAGTKLELK
notes: also called parent mouse antibody (13H02)
GH-dependent Nb2 cell proliferation inhibitory activity (IC50) [5]: 0.00336 nM | IC50 [6]: 0.0653 nM

B4: recombinant anti-GH mouse-human chimeric mAb (Ch-13H02) (antibody, human IgG1, V domains shown)
VH: B3 VH
VL: B3 VL
notes: also called Ch-13H2; anti-GH chimeric antibody
GH-dependent Nb2 cell proliferation inhibitory activity (IC50) [7]: 0.00627 nM | Neutralizing activity in GH-dependent Nb2 cell proliferation inhibition assay (IC50) [8]: 0.00265 nM | Neutralizing activity in GH-dependent Nb2 cell proliferation inhibition assay (IC50) [1]: 0.0136 nM | cross-reactivity [2]: < 1% | cross-reactivity [3]: < 1% | Kd [9]: 0.012 nM | koff [9]: 2.4e-05 s⁻¹ | kon [9]: 1.9e+06 M⁻¹ s⁻¹ | Kd [4]: 0.074 nM | koff [4]: 3.4e-05 s⁻¹ | kon [4]: 450000 M⁻¹ s⁻¹
